According to the DeepSol protein solubility set:

assay: soluble on expression in E. coli; label from the status in PepcDB or PDB records

Row | Sequence | soluble on expression in E. coli
1 | MAHHHHHHMNTDERYKLLRSVGEECIQESELRNLIEKKPLIRCYDGFEPSGRMHIAQGIFKAVNVNKCTAAGCEFVFWVADWFALMNDKVGGELEKIRIVGRYLIEVWKAAGMDMDKVLFLWSSEEITSHADTYWRMVLDIGRQNTIARIKKCCTIMGKTEGTLTAAQVLYPLMQCCDIFFLKADICQLGLDQRKVNMLAREYCDLIGRKLKPVILSHHMLAGLKQGQAKMSKSDPDSAIFMEDTEEDVARKIRQAYCPRVKQSASAITDDGAPVATDDRNPVLDYFQCVVYARPGAAATIDGTTYATYEDLEQAFVSDEVSEDALKSCLIDEVNALLEPVRQHFASNEEAHELLEAVKSYRKDGATLPLAETALPAAPAKPHACMWMPALLKVPLDVAEGMIKVTKDFIAAHPEGTVTLVLPDWSAVASDEITGVEKDISAALQVNCALLKAYGLPSSVKIVTENEVILGNCDDFWVSVIGIARKNLLSHVEELYGGEVRNAGQVIAALMRVATALMLSVSHVISTSLDGHINAFAREYTKERIDCVQTLEGRIPALHRPGAAPAVLGADDVLYLDDNDMDIRRKIKKAYSAPNEEANPVISVAQHLLAQHGALSIERGEANGGNVSYNTPEALVADCGSGALHPADLKAAVLQLLLDRSAQARALLNGELKKNMTVLRNAEKKMAKKR | soluble
2 | MAHHHHHHMPAAVTVHPLVLLSIVDHVTRVGLQTQQQRSPQKQGSAPDAAAASLPAPVFLSTAGLLMGTTRASGPVVTSTCSAESGGRGITTTLCASFEFPLRLQSTDGVAVAVAPSGDATFLQNILRDKTDWPAAQKHREQLSAVMPEMDVVGCYVVCASSRWTSTRHPRGGDDRDGSQLSVGGAVKKAKGEAMAGADHIAAIANCVQQQLRSTSILPSTATGFVLLVVYDKEVTSAAGDTDTAAPNPPHSPAAARLPFDCLYVPATTASDASPTEEVTVGPSDMEWIALANETMMPAYHQSSTTTCSAAVKPGLLRRLCSAAYLTSEGPDSREPANTQTSRMASSQNCRAAEELVGSLRLIMRVLVEMTASTLSPTGTAPDDVELLRTVATCLRNVPVSHPSQPPGEPRAPSELPTEEMLSAILALEVQCALHMRSLSKAQQQLLSSSRSAMTAFHSKACSPKAANPPPPLPSAEGWSTHERDKRSGVNTAVPGHGWV | not soluble
3 | MAHHHHHHMPAHRRYSSVSSSSSRAFSEPSDGGTSSVNDSNSYYSEGSGSYRSVSSVLASRSGAKTTAATTASSTSAVDSSSTNTFSDVLTTSSAYSHSSAPPRRAVTRPAASRSEAVGHKTTKGASGVVVADHNNTGVGETLAQRTASTFTAPTTASSVTVDGTDGLVRAPQSLMLQAALAPVSNRTANVARVKPCNVSEEELVHHPWAPVDCDTTVDASKEGGDRGGLALNVLDTIHTVPIAVPLPPEEAPRRREEGSPTYPSRLAFRVVPSSSPLRHSDSAVTEDKDGTGNGGGGAALGADGATAPRARKTSIACCCCCCLHGCGEKAPCNTKRYTATRQKPHHPLRSHHVPLVSFRTTREHGIPMEGVQNVLPSVEEAARYQNLKVDMMGTEEFPKLMRKAIQPRDRLAGGLRLEKSYAFGHGAGGGRGGAGQSAFVRDGDPQGFWIAHLHRCAIVRLEPIGAE | not soluble
4 | MAHHHHHHMPAVADCTVVFPLRHDPASTHPDVSGLVGKAFERVNWRDAFDTFLAEERSALWAAKTAFDNTDTSAYIAARDALFPQAVSGVHGAVAFRNRAGHKLHETMEAVGLWEYLKGGATRAKGTFTFVDVCGGPGAFSQALFAMGKEHKLRLRGFGLTLRNVKGLDWYTDLPSRSFFPCYGIDGTGDVFKLENIESLCSLTCKENVRLVVADGGFDVPTEVVNFQETISCRIVYGQWLSAVKLLRPGGCFVLKLFDCFSPFTRAILFLTTHLYESVQVVKPRHSRVVNSERYLVCIGFIGAPKQWLEHFERCYQEGFVDNDNIPTVLPTSLFSGDKIFGADVERMSATIASNQVSGLHAILEKLQSKPAMEEVKS | not soluble
5 | MAHHHHHHMPGSLKVQTGRGDARKTVKKTVLSKGNITRSDEPAGVADSAASASVAKSSSTTASTLTIAVALSMCEQERAVEAVKETIPASASREVLRKDPIYRIMHALPRSDVLEVVRSRFEKPHCERAAAYFDLSYMKNPLRHLRLQLGCDGPTGIYLFFRRIAAHRHTLRVVDFSRNRLSADDAVLICNTLGLGVAGDVATAPGTTKASSAGAVADSTVSTAVGASAQPASSLELLDLSYNAKLGNDGAVHVVRAVRRLPSIRAVILKSVGIDDAGAVAMADVVRRWPAPALCANSAAPHALLRPVTASATKFYLNLNENYIGARGTDVLGKGLPHYVSLTLAKQQPDPARDRKRSRDDDGAACR | not soluble
6 | MAHHHHHHMPGVLRGKGPTRVFLPQPCNHVGNLKIVWKVKLQIYAVQTNFSRVYGAPSDAQPHVICGTKRISDVHQDIACCRILLNGVIAPPVRLQNQPLVFLTKETGDGVGITHCVECRHVSQHILRLKKNIAVNDDSPLLGAAVTNEIHTKPASSHSSADTQMIGH | not soluble
7 | MAHHHHHHMPLPPLEEAPRSMTRRNYLVERNRLRVSAYAPTRRELEEEDIRMAQTREERRRNMLNSWKSQSMYNPDLTRPLPGGGPRSKRMKEAATLKNPNYYKIVKEEEAQLKAERTAMYRADVLQQLKDREEYLRKWREDEKAYVSSLVESNKEQARKLEEREREEARAEKEYMNRMRESNLRELEQKRMKEREREEYELSLIRTVQAREKEKAETEERRARDMKQMMRRENEEYHRSIKKKQKEDKAREEAELKAILEYNATLAERERQEQKQRRDQYKAEFEETIEKQKEFFRTHNYDEPPESIRERNEKAAAALALIKKEERLRLADRRREYRQELMQQIREKQEWQLTHIDGV | not soluble
8 | MAHHHHHHMPNSVDCDFLNAPAHPPCNNRISASSRSRDGASIRNIGSISNIGARNRGARNCDQVIHTVYVKYFEMERYLGNINYNMDYFNPVLNHPTKIEHGKIKILILDAPTNDLLPLYIKEMKNYNVTDLVRTCERTYNDGEITSAGINVHELIFPDGDAPTVDIVSNWLTIVNNVIKNNRAVAVHCVAGLGRAPVLASIVLIEFGMDPIDAIVFIRDRRKGAINKRQLQFLKAYKKKKKKKNCLRKCHFM | not soluble
9 | MAHHHHHHMPVAPLHPELQRVLKENRRTRAFDPAAWIEMKCAKLNDYMQRCGLKACVTSVSGGIDSAVVLAMCAHAMRAHNSPIQKNVGLCQPIHSSDWALRRGKENIAACGATEVVVDQTALHTELATLVERAAGIEGGAFARGQLRSYMRTPPGFYVAQLLTQEGTPAVVMGTGNKDEDFYLGYFCKAGDGVVDVQIISDLHKSEVLLVAEVLGVPENTRHAAPSADLWEGQTDEDELGFPYDFVELFTEWYLKQRETTKIKFLNSLCDEARNQFERYVAACELVHRRNAHKLQGQVNL | not soluble
10 | MAHHHHHHMPVRRYGGRYNSSSPGVSNALNPSRTAGWPLSPSPATGSKPASTHHDPVPQEAYYVKDEADARHQQQAPLREPSVEVEVEIIDDEPPRGSQKPLSVAPCTANANNSSGGSKCNAITASRYTFYTNAYQKSVYEALRSLRPLPELQEPRRVKEYAETSLKDSLYRIVEAHDVIMVAGAFFGDEGKGKTVDAVARHPLCTCIARVNSGENAGHTVYDKAGRKFVFNLAPSGLLLPGKRNYIGPECVMDPVSFMEKEVIQLIDAGIDYRDRLFIGNVCIVTPYHKLLDLLGSAANSSTLKGMAPVHGSKVMKRGIRLDHIFNDDETLRKRLEKDMDTYFGLLKVKNLSDADVVRLCREENSDGVVRVPDYVIAFAQAEDKVEFLVKLYRDRVRHNPGFPARCDVTYELHAALLRGEKVLLEGPQSYWLSNARTKFWESTTSADTTAAGLLAASQLNFQKFKSVVLNVHKAPGSSRVGIGACPSSFVPQDYFSAQNIKTLRDLPSATCAHFEAVQRTLFRDGFPHSNDKARHNGIMAPVEYSDETGTYNIGVAMAIASAQHHGECGAVTKKPRVCGFFDCVLHHEVNNIQGPYLTISALDRGDEYDKVGVTIAYVYYSPEGKQVDVNGHVYKNGDIIRAGDPVPSEPALYHCHPIVKLIDGWRDNPIAAAKRRRNAPLPRGVCELLSAIEYFTNCKILSIGNGPNGDDIIYLRQ | not soluble
11 | MAHHHHHHMPWATTLDLKATPPPTLCVTVSNTTDVLIIADMQVDFLTPGGSLHVKGGEALLDGINAVSSQLPFRYQVATQDWHPENHCSFVTHGGPWPPHCVQGSSGAQLHAGLHTHRINAVLRKGATQQADSYSAFVDDNGVSTGLAGLLHSIGARRVFVCGVAYDFCVFFTAMDARKNGFGVVLLEDLTAAVDDAAWSARAAELKEAGVVLLSSSALVAEGTET | soluble
12 | MAHHHHHHMQKSNEKNGPENNAKNGPENNAKNGPENNAKKGPENNAKKGPENNAKKGPENNAKKGPENNAKKGPENKEKKGHSCCGKKGSTGNPKEKKKSDKNSEDNKNSQGDKISKDHAECTPSLHVECAHNCCKKKLAFIYDCWDNFKSYKNIIEQHTKGQQENNFQLQGAGDEDSGEDGGASTTGHSMAMAMPMSFQLSTHTIILFKFWETKTVSRAGIPSQWRLLSGTP | soluble
13 | MAHHHHHHMQLKERLQQWRERGLQGADVDPPVQRPRSFRPSCIVPRLYLGAAKDVQDVRTLRSRLLPDKLLMVVSTCDPSDPPRMELRQIAPTKGTAYTVKRLAVCSWEELEKRVVTSSFCCRLPRNEVMVATAEWLKEVLKTKSLPPVSLEECRDVQKGETDGKVSEVFEEGLYLKLCLPWKDESNFTVRPYFAVATALIHATMDGIQGAVVCYCMAGKSRSATLTCALLLYCCYDNVGRPKDEEECSAYKAVQAVVEFVREVRLCVSPNEGFIEQLRDYASDLLAV | not soluble
14 | MAHHHHHHMQNSVGDVINLISKSEIRYEGKLHSINTEENTVSLSNVRIYGTEGRKGGGVEEVPPTEQLFEFIVFRGSDIKDLTVFRDSSSPQARDPAIVEVHAPARGRGGRAAAAAPAASATAASSAATRGSRSFYDEAQPYSRGGGGGRRGGYGAGRYNNNNGGGSNNSNSNRNHRGGYGGRGGSGNYRRNYRDYHTGQDFKPADIGATEKFEGDFDFAKCREEFEKKKSEFEKAKEDAKSHAKAYDKSSFFDTISCDQKEKNNMNRAEMRKADTETFGPEMVSSMRGFRRGRGGRGRYQQR | not soluble
15 | MAHHHHHHMQTHISRAVEEGRHTKEAAAYFESIMNDKPEFRLFMREAQRLIGDQDPRGLTRYQQTHYSEKLSRYMSGVASERLMRAHTEDENTRRHTHDGSPTGENYWFEAGQILASPTVPSFVKDEVLREMRGGRKEDSPAFEEPKAVAEMEADDEGFAEHLRRQRKRLLSPDDHLN | soluble
16 | MAHHHHHHMQYVERLFSAYGHVADVKIVFEGSVQFAEVMYNAVDDADSAIAALHHHYCASRNTPLVVLYHVRSPCISEYGRKVGREYAQAAALGRDPSYIPLEGFDENYPRTDVPPPPSDREIFEGARWNDSSGPAGEGRLHSY | not soluble
17 | MAHHHHHHMRARPSWHLRLNKNRDDVTTFRGFPATARSCCSIGSISGLQALPHPMELSSVEYRSEGWTHAICRLYRTLYKLHAKQLHPIQREFGDRFVQTEFQRHIDASEKHARIFYQSWYSYAVQLLVGQTSRDMTAEEQQQLTPEQKETMRRLRSHVLQAKQSEPGFHL | not soluble
18 | MAHHHHHHMRHCHMSFAYCFCPFSAHRSASSQGYTRLMRRLSGSTCLLTGVTRAGRWLPTTAPCLSLCSFFLTASRRKQSTSGIGGDVRDIEETHPDFQPRLVSADLAEDEIAMVKKDIDDTIKSEDVVTFIKGLPEAPMCAYSKRMIDVLEALGLEYTSFDVLAHPVVRSYVKEVSEWPTIPQLFIKAEFVGGLDIVTKMLESGDLKKMLRDKGITCRDL | not soluble
